assay: yeast display, Sf9 membrane polyspecificity reagent, FACS + sequencing; frameworks hold sequencing errors
Summary of the method: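 After 36–48 hours of galactose induction, yeast (Saccharomyces cerevisiae BJ5465) displaying a synthetic nanobody library were stained at 4 °C for 1 hour with 10% biotinylated, detergent-solubilized Sf9 membrane reagent. Streptavidin microbeads enriched the stained cells before FACS sorting into low and high (top ~1%) gates on anti-HA and streptavidin fluorescence. Each clone's polyreactivity label reflects its gate of origin.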

| Sequence | polyreactivity (PSR sort gate) |
| --- | --- |
| QVELVESGGGLVQAGGSRRLSCAASGSTFYAYAMGWYRQAPGKERELVAAISASGDSTYYADFVKGRFTISRDNAKNTVYLQMNSLTPEDTAVYYCAAEVYYRPQDYYTYPDYYWGQGTQVTVSS | high polyreactivity |
| QVHFVESGGGLVQAGGSLRLSSAASGRTFQYNAMGWYRQAPGKERELVARITWSGDSTYYADSVKGRFTISRDNAKNSVYLQMNSLKPEDTAVYYCNAGRRWRRTAYDYWGQGTQVTVSS | high polyreactivity |
| QVHHEETGGGIVQAGGSLRLSCAASGRIFDYIAMGWYRQAPGKERELVAAISQSGGSTYYADSVKGRFTISRDNAKNTVYLQMNSLKPEDTAVYYCAAFISRSRNEYWGQGTLVTVSS | high polyreactivity |
| QVHHVDSGGGLVQAGGTLRLSIPASGRTFQYYTMGWYRQPPGKERELVAAIRRGGSTYYADSVKGRFSISRDNAKNTVYLQLNILKPEDTAVYYCADLYAYSLTARGMEYWGQGTQVTVSS | high polyreactivity |
| QVHHVESAGRLVQAGGILRLICPASGFTFGHYVMGWYRQEPGKERELLAAITLSGGGTYYADSVKGRFTISRDNAKNTGYLQMNSLKPQDTAVYYCAAVGGDHAKITYSRYKVDYWGQGTQVTVSS | low polyreactivity |
| QVHHVESGGVLVQARVSLRLSCAASGIIIAYYAVGWYGQAPGKESELVAAITSGGSTSYADSVKGRFTISRDNAKNTVYLQMISLKPEDTAVYYCNTDPSGYESGYWGQGTQVTVSS | low polyreactivity |
| QVHIEDSGGGLLQAGGSLRLSCAATGRTFFYYAMGWYRQAPGKERELVAAISGRGGRTYYADSVKGRFTISRDNAINTVYLQMNSLKPEDTAVYFCGGDAGPLRYDYWGQGTQVTVSS | high polyreactivity |
| QVHIVESGGGLVQAGGSLRLSCAASGINFGRNVMGWYRQPPGKERELVAAISWSGGRTYYADSVKGRFTISRDNAKNTVYFQIKSLITEDTAVYDCNARTGYYTGQYDYWGQGSQVTVSS | high polyreactivity |
| QVHLEDSGGGLVQAGVILRLSSPASGSIFVYNAMGWYRPAPGKERELVAAISSSGGSTYYADSVKGRFTISRDNAKNTVYLQMNSLKPEDTAVYYCAAEAVRKVPSYYSYAYYYWGQGTQVTVSS | high polyreactivity |
| QVHLEESGGGLVQAGGSLRLSCAASGFTFHNNVMGWYRQAPGKERELVATISKSGGSTYYADSVKGRFTISRDNAKNPVYLQMKSLKPEDTAVYYSARRYRDYRRYAYWGQGTQVTVSS | high polyreactivity |
| QVHLEESGGGLVQAGGSLRLSCAASGRTFYANTMGWYRPAPGKERELVAGITSGGSTSYADSVKGRFTISRDNAKNTVYLQMNSLKPEDTAVYYCAAQFYRYTATGYYADGYWGQGTQVTVSS | low polyreactivity |
| QVHLGESGGGLVQAGGSLRLSCAASGSTFDRNVIGGYRQAPGKERELVAAISRVSSTNYADSVKGRFTISRDNAKNTVYLQMNSLKPEDTAVYYCAADRAGSIMNYWGQGTQVTVSS | low polyreactivity |
| QVHLGETGGALVQAGGRLRLSCAASGITLGAYAMGWYRQAPGKERELVARIRIGGSTYYADSVKGRFTISRDYAKNTVFLQMNSLKPEDTAVYYCNALYRYLYRSGDYWGQGTQVTVSS | low polyreactivity |
| QVHLLESGGGLVQAGGSLRLICAASGRILYPYALVWYRQAPGKETELVAAITFRGGNTYYADSVKARFTLSRDYAKNTVYLQMNSMKPEDTAVYFCAARKSPRSQVRGRSYYWGQGSQVTVSS | high polyreactivity |
| QVHLQDSGGGLVQAGGSLRLSCAASCYISDVNDMGWYRQAPGKEREFVAGIGYGGITNYADSVKGRFTISRDNAQNTVYQHMNSLKPKDTAVYNCAVHWGPDSGLYYWGQGTQVTVSS | high polyreactivity |
| QVHLQDSGVGLVQAGGSLRLSCAASGSIFGSGSMGWFRQAPGKERELVATINNGSSTYYADSVKGRFTISRDNAKNTVYLQMNSLKPEDTAVYYCAVYLYRLTFFYYWGQGNQVTVSS | high polyreactivity |
| QVHLQESGGGLVKAGGSLRLSCAASGTISPLPAMCWYRQAPGKEREFVAGIDTGAITNYADSVKGRFTISRDNAKNTVYLQMNSLKPEDTAVYYCAFFPAAYDYYERYYTYWGQGTQVTVSC | low polyreactivity |
| QVHLQESGGGLVQAGGSLRLSCAASGTIFRFRYMGWHRQAPGKERELVAGINGGTTTYYADSVIGRFTISRDNAKNTVYLQMNSLKPDDTAVYNCAAGASRLTYYDFWGQGTQVTVSS | low polyreactivity |
| QVHLQESGGGLVQAGGSLRMSCAASGTIFTEANMGWYRQAPGKERELVATIGLGSTTNYADSVKGRFTISRDNAKNTVYLQMNSLKPEETAVYYCAVVTVDPVGFVYWGQGSQVTVSS | low polyreactivity |
| QVHLVDSGGGLVQAGCSLPLSCAASGRTFLAYAMGWYRQEPGKERQLVAAISGSGGRSYYADSVKGRFTISRDNAMNTVYLQMNSLKPEDTAVYYCAANVVRWWGDGDYWGQGTQVTVSS | high polyreactivity |
| QVHLVDSGGGLVQAGGSLRLSCAASGYIFPYNAMGWYRQEPGKERELVATITGTGGSTYYADSVKGRFTISRDNAKITVYLQMNSLKPEDTAVFYCAADLSIRYDHEYGYWGQGTQLTVSS | low polyreactivity |
| QVHLVESAGGLLQAAASLRLSGDASGSIISSYAMGWYRQAPGKERQLVAAITRSGGSTYYADSVKGRFTISRDYAKKTVYLQMNSLNPEDTAVYYCAARSYVHVFVRMYYWGQGTQVTVSS | high polyreactivity |

| Sequence | polyreactivity (PSR sort gate) |
| --- | --- |
| QVHLVESAGGLVQAGGSLRLSCAASGLIFGTYAMGWYRPAPGKERELVATINSSGGSTYYADSVKGRFTISRDNAKNTVYLQINSLKPEDTAVYYCAADNWVNDGDYWGQGTQVTVLS | low polyreactivity |
| QVHLVESAGGLVQAGGSLRLSCAPSGSTFPLYVMGWYRQAPGKERELVAAIDWSGGSTYYADSVKGRFTISRDNAKNTVYLQMNRLKPEDSAVYYCNARYLRRGDYWGQGTQVTVSS | low polyreactivity |
| QVHLVESGAGLVHAGGRLRLSCAASGRIFFGYAMGWYRQAPGKERELVAGITSSTGRTYYADSVKGRFTISRDNAKNTVYLQMNSVKPEDTAVYYCAADTWYRYDYWGQGTQVTESS | low polyreactivity |
| QVHLVESGGAIVQAGGSLRLSCAASGYIFDRNAMAWYRQAPGKERELVAAITKRGGITYYADSVKGRFTISRDNAKNTVYLQMNSLKAEDTAVYYCNALARSSRYDYWGKGTQVTVSS | low polyreactivity |
| QVHLVESGGALVQAGGSLRLSCAASGFTFHTYASRLYRQAPGKEREFVAAISYSGGNTYYADSVKGHFTISRDNAKKTVYLHMNSLKPEDTAVYYCAAQYYYRYYWGPGTQVTVSS | high polyreactivity |
| QVHLVESGGCLVQAGGSLRLSCAASGFIFPTYAMGWYRQAPGKERELVATITTNAGGTHYADSVKGRFTISRDNAKNTVYLQMNCLKQEDTAVYYCAAKQYRPKQRKYWTRIYDYWGQGTQVTVSS | low polyreactivity |
| QVHLVESGGCLVQAGGSLRLSCAASGSTFPSYAMGWYRQAPGKERELVAAINSGGGTNYADSVKGRFTITRDNAKNTVYLQLNILKPEDSAVYYGAADVWKLYDYWGQGTQVTVSS | low polyreactivity |
| QVHLVESGGGFVQAGGSLRLSCAASGSIFWLYAMGWYRHAPGKERELVAAISWSTGGTYYADSVKGRFTISRDNAKNTVYLQMNSLKPEDTAVYYCNADTYDQYNYWGQGTQVTVSS | low polyreactivity |
| QVHLVESGGGIVQAGGSLPLTCAAYGSIFNRYAMGWYRPAPGKERQLVAAISLTSGSTYYADYVKGRFTISRDNEKITVYLQMNSLKPEDTAVYYCATRRKVGPTQVGFYYRGGVDYWGQGTQVTVSS | high polyreactivity |
| QVHLVESGGGIVQAGLSLRLSCAASGRTFVVNAMGWYRQAPGKERELVAAISYSGGRTYYADSVKGRFTISRDIAKNTVYLKMNSLKPEDTAVYYCAAQSRYGGKFYYWGQGTQVTVSS | high polyreactivity |
| QVHLVESGGGLDQAGGSLRLICPASGLIFYRYAMGWYRQAPGKERELVAAITTNGARTYYADSVKGRFTISRDNAKNTVYLQMNSLIPEDTAVYYCAGYGAGKFWAEHNYWGQGTQVTVSS | high polyreactivity |
| QVHLVESGGGLDQAGGSLRLSCAASGRTFKRYAMGWYRQAPGKETELVAAISWSGTSTYYADSVKGRFTISRDNAKNTVYLQMNSLKPEDTALYFCNTPHRSSSVRSYGYWGQGTQVTVSS | high polyreactivity |
| QVHLVESGGGLFQAGGSLRISCAASGRIFIGNAMGWYRPAPGKERELVAAISKRGGSTYYADSVKGRFTISRDYAKNTVYLQMNSLKPEDTAVYYCNKESLYREFDYWGQGTQVTVSS | low polyreactivity |
| QVHLVESGGGLGKAGGSLRLSSAASGRTFQYYTMGWYRQAPGKARELVAAIRRGGSTYYADSVKGRFTISRDNAKNTVYLQMYSLKPEDTAVYYCAALYAYSLTARGMEYWGQGTQVTVSS | high polyreactivity |
| QVHLVESGGGLGQAGGSLRLSGAASGFIFGDYAMGWYRQAPGKERELVADINWTGGSTYYADSVKGRFTISRDNANNTVYLQMKSLKPEDTEVYYCDKDDYAFLITWVDYWGQGTQVTVSS | low polyreactivity |
| QVHLVESGGGLVEAGGSLRLSCAASGRIFQGYAMGWYRQAPGKERELVAAITRSGGSTYYADSVKGRFTISRDNAKNTVYLQMNSLKPEDTAVYYCAASHYGLLEYWGQGTQVTVSS | low polyreactivity |
| QVHLVESGGGLVHAGGSLRLSCAASGRSFTFYDMGWYRQAPGKERELVAAITQDSGSSTYYADSVKGRFTISRDNAKNTVYLQMNSLKPEDTAVYYCNADYPGFSSQNDYWGQGTHVTVSS | low polyreactivity |
| QVHLVESGGGLVKAGGSLGLSCSPSGSTLSFNAMGWYRQAPGKERELVAGITYSGGSTYYADSVKGRFTISRDNAKNTFYLLMNSLKPEDTAVYYCNKASGVYYGHLDYWGQGTQVTVSS | low polyreactivity |
| QVHLVESGGGLVKAGGSLRLSCAASGISFGSNVMGLYRQAPGKERELVAAINYGGGSTYYADSVKGRFTISRDNAKNTVYLQMNSLKPEDTAVYYCAARGSRVYRYDYWGQGTQVTVSS | low polyreactivity |
| QVHLVESGGGLVKAGGSLRLSCAASGRTFYKYAKGWYRQAPGKEREFVADISSRGGSTYYEDSVKGRFTISRDNAKNTLYLQMNSLKPEDTAVYYCNSRRNSVRYNYWGQGTQVTVSS | high polyreactivity |
| QVHLVESGGGLVKAGGSLRLSCGASGSTFERYAMGWYRQAPGKERELVAAINWSGGGTYYADSVKGRFTSSRDNAKNTVYLQMNSLNPEDTAVYYCAGDSGTVVFSLWWYEYYYWGQATQVTVSS | low polyreactivity |
